From article PMC6778195
pKd: −log10 of the molar value.

Tests used:
ICAM-1^D1D5-Fc [1] = molecular target: ICAM-1^D1D5-Fc (UniProt P05362); assay: SPR; conditions: for response: top curve of the dilution series (500 nM), read at end of injection (~300 s), parent: est. 240, read off a plot
ICAM-1^D1D5-Fc [2] = molecular target: ICAM-1^D1D5-Fc (UniProt P05362); assay: SPR; ICAM-1^D1D5-Fc immobilized to 850 RU on a CM5 chip precoupled with Protein A; IT4var13 DBLβ proteins 0.9 nM to 250 nM injected at 30 µL/min, 240 s association, 600 s dissociation; 20 mM Hepes, 300 mM NaCl, 0.005% Tween 20, pH 7.2; Biacore T200; global fit to a 2-state reaction model

Chain of ICAM-1^D1D5-Fc (P05362 28-480): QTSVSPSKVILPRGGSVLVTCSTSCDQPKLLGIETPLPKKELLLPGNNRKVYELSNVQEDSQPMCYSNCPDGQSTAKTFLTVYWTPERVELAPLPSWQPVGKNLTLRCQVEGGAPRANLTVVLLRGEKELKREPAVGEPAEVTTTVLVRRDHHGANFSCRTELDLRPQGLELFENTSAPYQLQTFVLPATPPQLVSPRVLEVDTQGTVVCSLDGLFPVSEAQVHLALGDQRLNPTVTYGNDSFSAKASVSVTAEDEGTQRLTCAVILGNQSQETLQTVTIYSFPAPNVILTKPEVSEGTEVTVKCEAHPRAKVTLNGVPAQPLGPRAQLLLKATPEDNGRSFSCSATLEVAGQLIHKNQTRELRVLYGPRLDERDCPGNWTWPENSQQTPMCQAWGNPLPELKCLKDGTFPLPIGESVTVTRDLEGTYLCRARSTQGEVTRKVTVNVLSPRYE

Substance	response (ICAM-1^D1D5-Fc [1])	further results
IT4var13 DBLβ domain (wild type) (domain or fragment)	–	pKd (ICAM-1^D1D5-Fc [1]): 8.91
J1a DBLβ domain (wild type) L1096D	140 RU	–
J1a DBLβ domain (wild type) G1117A	35 RU	–
J1a DBLβ domain (wild type) L1093D	260 RU	–
J1a DBLβ domain (wild type) Y1097A	25 RU	–
IT4var13 DBLβ Q1103A (domain or fragment)	–	fold decrease in affinity against wild type (ICAM-1^D1D5-Fc [2]): 200 fold
